Reference: PMC3245471

Experiments:
[1] = target: glucose 6-phosphate dehydrogenase from Leuconostoc mesenteroides, guanidine-denatured (Leuconostoc mesenteroides) (UniProt P11411)
[2] = target: tobacco Trx f C19/71S double mutant, His-tagged (Nicotiana tabacum); experiment: non-reducing SDS-PAGE with Western blot
[3] = target: tobacco Trx f C71S mutant, His-tagged (Nicotiana tabacum); experiment: non-reducing SDS-PAGE with Western blot

Sequence of UniProt P11411 (P11411 whole entry): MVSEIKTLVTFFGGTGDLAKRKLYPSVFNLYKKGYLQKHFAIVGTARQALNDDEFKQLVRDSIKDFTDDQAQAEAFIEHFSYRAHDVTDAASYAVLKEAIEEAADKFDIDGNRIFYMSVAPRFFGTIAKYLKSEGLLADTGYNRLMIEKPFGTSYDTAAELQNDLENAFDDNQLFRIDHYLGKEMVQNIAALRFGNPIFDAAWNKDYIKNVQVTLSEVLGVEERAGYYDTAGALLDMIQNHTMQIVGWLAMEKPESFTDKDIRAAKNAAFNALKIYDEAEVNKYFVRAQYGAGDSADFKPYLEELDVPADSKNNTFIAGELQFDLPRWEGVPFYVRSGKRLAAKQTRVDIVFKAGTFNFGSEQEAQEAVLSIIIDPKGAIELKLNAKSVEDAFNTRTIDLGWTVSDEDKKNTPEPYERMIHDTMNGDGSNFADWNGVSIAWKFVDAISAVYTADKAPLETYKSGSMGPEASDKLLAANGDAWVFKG

Substance	chaperone foldase activity (G6PDH reactivation) relative to wild-type Trx f [1] [% decrease]	stoichiometry N [2]	stoichiometry N [3]
tobacco Trx f C19/71S double mutant, His-tagged (enzyme)	80	2	
tobacco Trx f C71S mutant, His-tagged (enzyme)	80		2
